B1: CADM3102 scFv-hG4PE (Fc fusion)
VH: QMQLVQSGAEVKKPGSSVKVSCKASGGTFSSYAISWVRQAPGQGLEWMGGIIPMSGTANYAQKFQGRVTITADESTSTAYMELSSLRSEDTAVYYCARVEESGWYDHYHGMDVWGQGTTVTVSS
VL: DVVMTQSPLSLPVTPGEPASISCTSSQSLLYSNGFNYLDWYLQKPGQSPQLLIYLGSNRASGVPDRFSGSGSGTDFTLKISRVEAEDVGVYYCMQALTTHPTFGGGTKVDIK
B2: iCADM3_3R1-L11 VHH-hG4PE(R409K) (Fc fusion, not shown: a dimerising Fc or GST)
chain: QVQLVESGGGLVQAGGSLRLSCAASGSIFSFNAMGWYRQAPGKQRGLVAVITSGGYTNYADSVKGRFTITRDNAKNTVYLQMNSLKPEDTAVYYCNAEGVYSDYVIMNYWGQGTQVTVSS
B3: iCADM3_3R1-L5 VHH-hG4PE(R409K) (Fc fusion, not shown: a dimerising Fc or GST)
chain: QVQLVESGGGLVQAGGSLRLSCAASGSIVSVNAMGWYRQAPGKQRELVATITSGGSTNYADSAKGRFTISRDNAKNTMYLQMNSLKPEDTAVYYCNGEFWSRRDTRPPGVVNYWGQGTQVTVSS
B4: anti-AVM antibody (antibody, V domains shown)
VH: EVQLVESGGGLVQPGRSLKLSCAASGFTFSNYAMAWVRRAPTKGLEWVASISNGGGNTYYRDSVKGRFTISRDDAKNTLYLQMDSLRSEDTATYYCARHGNYIYYGSFFDYWGQGVMVTVSS
VL: QFVLSQPNSVSTNLGSTVKLSCKRSTGNIGSNYVSWYQQHEGRSPTTMIYRDDKRPDGVPDRFSGSIDRSSDSALLTINNVQTEDEADYFCQSYSSGINIFGGGTKLTVLG
B5: iCADM3_3R1-L10 VHH-hG4PE(R409K) (Fc fusion, not shown: a dimerising Fc or GST)
chain: QVQLVESGGGLVQAGGSLRLSCAASGSIFSIHAMGWYRQAPGKQRELVATVTSGGSTNYADSVKGRFTISRDNAKNTVYLQMNSLKPEDTAVYYCNAETPYYSSTYYTNYWGQGTQVTVSS
B6: iCADM3_3R1-L8 VHH-hG4PE(R409K) (Fc fusion, not shown: a dimerising Fc or GST)
chain: QVQLVESGGGLVQPGGSLRLSCAASGRTFSNYARGWFRQAPGKEREFVAAIDYSGGSTNYADSAKGRFTISRDNAKNTVYLQMNSLKPGDTAVYYCAAPASRRPSWDADGYDYWGQGTQVTVSS
B7: CADM301 scFv-hG4PE (Fc fusion)
VH: QVQLVQSGAEVRRPGTSVKVSCKASGYSFTSYDINWVRLATGQGLEWMGWMNPNTGDTGSPQKFQDRVTMTRDISTGTAYLELRGLKSEDTAIYYCARGFLVTAYTAEFFPHWGQGTLVTVSS
VL: SYVLTQPPSVSVAPGKTARLTCGGNNIGSKSVHWYQQRPGQAPVLVINYDSDRPSGIPERFSGSNSENTATLTISRVEAGDEADYYCQVWDSGSDHVVFGGGTQLIIL

target: monkey CADM3 (cynomolgus monkey); test: flow cytometry, 10 ug/mL, monkey CADM3/Expi293F vs parent Expi293F cells
Sequence (Q8N126 25-398 S206N limits assumed, form in doubt): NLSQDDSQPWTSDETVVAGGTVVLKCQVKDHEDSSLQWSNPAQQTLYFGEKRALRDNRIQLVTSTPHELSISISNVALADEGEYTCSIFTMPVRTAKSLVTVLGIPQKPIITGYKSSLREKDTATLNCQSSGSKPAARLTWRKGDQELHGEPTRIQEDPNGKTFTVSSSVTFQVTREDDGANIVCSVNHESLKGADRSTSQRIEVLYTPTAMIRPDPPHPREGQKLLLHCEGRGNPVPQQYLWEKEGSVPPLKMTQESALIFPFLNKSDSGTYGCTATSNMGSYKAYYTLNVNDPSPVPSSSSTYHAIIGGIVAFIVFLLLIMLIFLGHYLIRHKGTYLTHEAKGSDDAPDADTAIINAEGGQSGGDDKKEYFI

**Q.** Which Mean fluorescence intensity ratio does the source give for B1 here?
**A.** 51.5

**Q.** B2 was tested. Which Mean fluorescence intensity ratio did it give?
**A.** 35.3

**Q.** B3 was tested. Which Mean fluorescence intensity ratio did it give?
**A.** 26.6

**Q.** B4 was tested. Which Mean fluorescence intensity ratio did it give?
**A.** 1.02

**Q.** How did the Mean fluorescence intensity ratio turn out when B5 was run?
**A.** 36.5

**Q.** For B6, which Mean fluorescence intensity ratio is on record?
**A.** 6.91

**Q.** With B7 as the binder, how does the Mean fluorescence intensity ratio read?
**A.** 5.72
